Measured values reported in the supplement of paper PMC9732359.
± gives the uncertainty stated by the source.

Test: protein stability index of a GFP-peptide fusion (yeast GPS) (PSI 1-4); higher = more stable; sorted into four equal gates, so the index is relative within each strain
How it was run: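 The protein stability index combines read frequencies across sorting gates, each weighted by its gate number and then summed. To obtain those frequencies, a pooled yeast library of GFP fusions to tiled 17-residue yeast protein peptides, on a plasmid also expressing Cherry, was grown to mid-log phase in leucine-free medium. The cells were sorted into four equal gates by GFP/Cherry ratio before plasmid amplification by PCR and Illumina sequencing.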

Sequence | protein stability index (doa10∆) | protein stability index (pdr5∆) | protein stability index (san1∆) | protein stability index (ubr1∆)
WKDFTVEIAFLFRAIYL [YCG1] | 2.36 ± 0.1 | 2.36 ± 0.064 | 2.48 ± 0.1 | 2.26 ± 0.071
KNSSVSSLMNGLGYVFE [SRB5] | 3.06 ± 0.14 | 1.72 ± 0.073 | 2.4 ± 0.1 | 2.51 ± 0.056
ATNRVDVLDPALLRSGR [RPT5] | 3.13 ± 0.12 | 2.84 ± 0.11 | 3.04 ± 0.085 | 2.94 ± 0.075
WGVNLPAHTVIIKGTDV [BRR2] | 2.82 ± 0.086 | 2.79 ± 0.13 | 2.32 ± 0.083 | 2.58 ± 0.058
SYKRIYGEYPPTKLLVS [PRE8] | 2.87 ± 0.083 | 3.03 ± 0.085 | 2.75 ± 0.1 | 3.09 ± 0.06
ATTGGLFGSKPQGSTTN [YGR119C/NUP57] | 3.34 ± 0.1 | 3.37 ± 0.1 | 3.39 ± 0.12 | 3.55 ± 0.18
KLKDSKKLFQKKENLTR [YML103C/NUP188] | 2.57 ± 0.12 | 3.3 ± 0.1 | 2.97 ± 0.11 | 3.25 ± 0.1
KLNDSQRKTVNSDDILS [POP1] | 2.3 ± 0.075 | 1.99 ± 0.1 | 2.38 ± 0.087 | 2.89 ± 0.093
GYKSTVKSLRQGKSKLI [RPL30] | 1.31 ± 0.08 | 1.35 ± 0.059 | 1.4 ± 0.2 | 1.48 ± 0.061
FSWISVVNDLVGEKLVV [SIR3] | 3.42 ± 0.13 | 2.58 ± 0.14 | 3.26 ± 0.072 | 2.84 ± 0.14
LKNTMQYLTNFSRFRDQ [RPB4] | 3.09 ± 0.12 | 2.97 ± 0.17 | 3.1 ± 0.087 | 3.19 ± 0.074
QRQERLRQQQQQQDQPE [RPN10] | 3.34 ± 0.098 | 2.88 ± 0.064 | 2.86 ± 0.088 | 3.22 ± 0.056
QYMEELADDDEERFSEL [RPL5] | 1.12 ± 0.14 | 1.14 ± 0.18 | – | –
VDIEYTRGRNIIMHKDV [RET1] | 2.44 ± 0.11 | 2.55 ± 0.13 | 2.92 ± 0.064 | 2.84 ± 0.1
AAQTLLQMDYKDDMKVD [PRE9] | 3.3 ± 0.1 | 3.3 ± 0.068 | 3.25 ± 0.063 | 3.26 ± 0.084
SVDITGGPWFTDGELDI [RPC34] | 3.04 ± 0.14 | 3.43 ± 0.12 | 3.12 ± 0.13 | 3.18 ± 0.078
LKTNGKQNNKDFRTRYI [MTW1] | 2.75 ± 0.059 | 2.84 ± 0.065 | 2.52 ± 0.081 | 2.51 ± 0.059
TRRKRRQGRSNRRGMLA [SNF5] | 2.51 ± 0.13 | 2.71 ± 0.14 | 2.86 ± 0.11 | 2.99 ± 0.11
LLNRIPRMYHIGLRQFQ [POP1] | 2.09 ± 0.099 | 1.51 ± 0.077 | 1.72 ± 0.18 | 1.3 ± 0.11
QEAFKIYQHLASHNEKD [SRP72] | 1.89 ± 0.082 | 3.08 ± 0.1 | 2.93 ± 0.15 | 2.89 ± 0.1
YDLLISTLTTISGNPPL [SRB5] | 2.43 ± 0.052 | 2.3 ± 0.045 | 1.77 ± 0.07 | 2.46 ± 0.04
VVVKNWGAETDELSMIM [RPS12] | 3.35 ± 0.14 | 3.4 ± 0.14 | 3.23 ± 0.087 | 3.15 ± 0.14
PFSFSSATSTTEQTKSK [YLR335W/NUP2] | 2.99 ± 0.06 | 2.99 ± 0.058 | 2.85 ± 0.075 | 2.86 ± 0.054
HSFEDAHTPMLQMYSKI [FAS1] | 2.75 ± 0.06 | 3.03 ± 0.086 | 2.82 ± 0.096 | 2.84 ± 0.076
GSGNNNEIESRQLTSLG [SNU114] | 3.4 ± 0.16 | 3.32 ± 0.16 | – | 3.19 ± 0.19
KTHRGLRKVACIGAWHP [RPL3] | 1.41 ± 0.064 | 3.19 ± 0.12 | 2.23 ± 0.087 | 2.92 ± 0.076
